{"source": "paper PMC11655901", "about": "“Mass balance, metabolic disposition, and pharmacokinetics of a single IV dose of [14C]CA102N in HT-29 xenograft athymic nude mice” (Frontiers in Pharmacology, 2024)", "key": {"[1]": {"experiment": "In vivo metabolite profiling (HPLC-MS with radio flow-through detector) of plasma, urine, feces, liver, tumor", "settings": "for free Nim or H-Nim in the biological samples evaluated: after [14C]CA102N 200 mg/kg IV", "protocol": "Samples were collected on days 0 through 10. […] The weights of all samples (except blood and plasma) were recorded and then stored at −70°C for later analysis.\nFecal and tissue homogenates were maintained at approximately −70°C for MET-ID analysis. The metabolite profiling in the biological samples from mice dosed with [14C]CA102N was performed by HPLC-tandem mass spectrometry coupled with a radio flow-through detector (RFD). The HPLC-MS/radio flow-through detector (RFD) consisted of a Shimadzu NexeraTM (Shimadzu, disseminated Japan) ultra-high pressure liquid chromatography system with two LC-30AD pumps, a SIL30AC autosampler, and a CTO-30A column oven; A Sciex TripleTOF 6600TM (Sciex, Framingham, MA) mass spectrometer; and a β-RAM Model 3 RFD. The mass spectrometer was controlled by Analyst TF 1.7TM (Sciex, Framingham, MA), and the RFD was controlled by Laura Lite 5TM (LabLogic Systems, Brandon, FL) software. The HPLC eluent was split between the RFD and mass spectrometer with a ratio of 3 to 1.\n[14C]CA102N and its metabolites were separated using reverse-phase and hydrophilic interaction chromatography. Two HPLC methods were used to separate the metabolites and the parent molecule CA102N, using RFD and mass spectrometer simultaneously.\nRetention times of the metabolites were determined from the radio-chromatograms. Mass spectra (MS and MS/MS) of metabolite standards (H-Nim, H-Nim Saccharide, H-Nim Disaccharide) were acquired and major fragment patterns were proposed. […] For other unknown metabolites, molecular ions were searched on LC-MS chromatograms at the same retention times as those found on an HPLC radio-chromatogram. The product/ion spectra were acquired for the corresponding molecular ions. Putative metabolite structures were proposed based on the analysis of their mass fragment patterns."}, "[2]": {"experiment": "PK of the parent molecule H-Nim in mice (LCMS of serum)", "type": "in vivo, female BALB/c athymic (nu+/nu+) mice", "settings": "4.5 mg/kg IV", "experimental": "Female BALB/c athymic (nu+/nu+) mice (n = 5) were used in the study. Mice were treated with a single bolus injection of H-Nim via the tail vein at 4.5 mg/kg. The blood samples were collected at 5, 10, 30, 60, and 120 min after treatment. Mice were anesthetized and decapitated to obtain the blood samples. Serum supernatant was collected and stored at −80 until analysis.\nPK samples were analyzed by LCMS analysis. The retention time of H-Nim was approximately 25.4 min on the extracted ion chromatogram (XIC) and the protonated molecule of H-Nim was at m/z 279."}, "[3]": {"settings": "in vivo; cited from earlier work"}, "[4]": {"tested_on": "HT-29 xenograft", "design": "method as in Lin et al., 2017", "settings": "200 or 400 mg/kg weekly (QW) or three times a week (TIW); ref Lin et al., 2017; cited from earlier work"}, "[5]": {"settings": "mouse, in vivo"}, "[6]": {"experiment": "Quantitative Whole-Body Autoradiography (QWBA) tissue distribution of total radioactivity", "type": "in vivo, female BALB/c athymic (nu+/nu+) HT-29 xenograft mice", "experimental": "Food and water were provided ad libitum.\nSamples were collected on days 0 through 10.\nThe pinna, limbs, and tail were removed from each frozen carcass (Group 3) and the remaining carcass was embedded in an aqueous suspension of approximately 1% (w/v) carboxymethylcellulose and frozen into a block. The blocks were stored at approximately −20°C before sectioning. Each blocked carcass was mounted on a microtome stage (Leica CM3600 Cryomacrocut and/or a Vibratome 9800, Leica Corp., Nussloch, Germany) and maintained at approximately −20°C. Sections were collected and allowed to dry by sublimation in the cryomicrotome at −20°C for at least 48 h. A set of sections for each mouse was mounted on a cardboard backing, covered with a thin plastic wrap, and exposed along with calibration standards of [14C]-glucose mixed with blood at 10 different concentrations to a [14C]-sensitive phosphor imaging plate (Fuji Biomedical, Stamford, CT). The imaging plates and sections were placed in light-tight exposure cassettes, for a 4-day (96 h) exposure at room temperature. The imaging plates were scanned using the GE Healthcare Typhoon FLA 9500 image acquisition system (GE/Molecular Dynamics, Sunnyvale, CA, United States). Quantification was performed by image dosimetry using MCID image analysis software (Version 7.0, Interfocus Imaging Ltd., Linton, Cambridge, United Kingdom). A standard curve was constructed from the integrated response (MDC/mm2) and the nominal concentrations of the [14C]-calibration standards. The concentrations of radioactivity were expressed as the µg equivalents of CA102N per gram sample (µg equiv/g).\nThe following calculations were used to determine the µg equivalents/mL, or/g and % percent of dose in the tissue: µg equivalents/mL=µCi/mL/Specific Activity DosedµCi/mL µg equivalents/g=DPM of the sample×1/MassTissueg/Specific Activity of the radiolabeled moleculeDPM/g Percent of dose in tissue=µg eq in tissue×100/Specific Activity DosedμCi/μg\nAutoradioluminographic image data were calibrated using response curves that were generated using a weighted, 1st-degree, polynomial, linear equation (1/MDC/mm^2). A numerical estimate of the goodness of fit was given by the relative error, where the absolute value for the relative error of each calibration standard must have been ≤0.250 to be accepted.\nThe LLOQ and ULOQ were set using calibration standard concentration values of 0.0003 and 20.973 μCi/g, respectively, which were widely proven values ([Kolbe and Dietzel, 2000]) that were verified during the QWBA system validation ([Solon and Lee, 2002])."}, "[7]": {"settings": "mouse, in vivo", "remark": "listed apart in the source"}}, "data": [{"compound": "CS(=O)(=O)Nc1ccc(N)cc1Oc1ccccc1", "note": "[H-Nim]", "values": [{"measurement": "free Nim or H-Nim in the biological samples evaluated", "setting": "[1]", "value": "No free Nim or H-Nim are determined"}, {"measurement": "half-life", "setting": "[2]", "value": "< 5", "unit": "min"}, {"measurement": "serum concentration at any time point greater than 5 min", "setting": "[2]; detection limit 0.1 μg/mL", "value": "not detectable"}, {"measurement": "serum concentration", "setting": "[2]; 5 min", "value": 142, "unit": "ng/mL"}]}, {"compound": "N-(4-Amino-2-phenoxyphenyl) methanesulfonamide-graft-poly (β-D-(1, 3) glucuronic acid-β-D-(1, 4)-N-acetylglucosamine) conjugate [CA102N]", "values": [{"measurement": "hepatotoxicity", "setting": "[3]", "value": "absence of hepatotoxicity"}, {"measurement": "tumor burden compared to vehicle-treated controls", "setting": "[4]", "value": "significant reduction in tumor burden"}, {"measurement": "cage rinses, wash, and wipe combined, percent of dose", "setting": "[5]", "value": 20, "unit": "%"}, {"measurement": "radioactivity elimination through urine, average percent of dose (abstract)", "setting": "[5]", "value": 77, "unit": "%"}, {"measurement": "total dose eliminated within the first 24 h", "setting": "[5]", "value": "Around 60%"}, {"measurement": "lowest relative tissue concentrations: white adipose, brain, spinal cord, bone tissue, eye lens, mammary gland region, skeletal muscle", "setting": "[6]; 200 mg/kg IV", "value": "< 60", "unit": "μg equiv/g"}, {"measurement": "half-life of release of CA102N and its metabolites from tumor sites", "setting": "[6]; mouse, in vivo", "value": 74.2, "unit": "h"}, {"measurement": "tissue-to-blood ratio, Blood (cardiac)", "setting": "[6]; mouse, in vivo, iv, 200 mg/kg", "value": 1.00}, {"measurement": "total radioactivity, adrenal Gland", "setting": "[6]; mouse, in vivo, iv, 200 mg/kg", "value": 429.979, "unit": "μg equiv/g"}, {"measurement": "total radioactivity, thyroid", "setting": "[6]; mouse, in vivo, iv, 200 mg/kg", "value": 469.62, "unit": "μg equiv/g"}, {"measurement": "systemic plasma clearance (CL)", "setting": "[7]", "value": 0.2, "unit": "mL/min/kg"}, {"measurement": "volume of distribution at steady state (Vss)", "setting": "[7]", "value": 0.1, "unit": "L/kg"}, {"measurement": "AUC 0-inf_obs", "setting": "[7]; iv, 200 mg/kg", "value": 18332.4, "unit": "μg equiv/ml*h"}, {"measurement": "AUC 0-t", "setting": "[7]; iv, 200 mg/kg", "value": 18329.2, "unit": "μg equiv/ml*h"}, {"measurement": "AUC 0-t/0-inf_obs", "setting": "[7]; iv, 200 mg/kg", "value": 0.99}, {"measurement": "AUClast", "setting": "[7]; iv, 200 mg/kg", "value": "18,332.4 μg equiv/ml*h"}, {"measurement": "AUMC 0-inf_obs", "setting": "[7]; iv, 200 mg/kg", "value": 161062.0, "unit": "μg equiv/ml*h^2"}, {"measurement": "C0", "setting": "[7]; iv, 200 mg/kg", "value": 1985.6, "unit": "μg equiv/ml"}, {"measurement": "Cl_obs", "setting": "[7]; iv, 200 mg/kg", "value": "0.01 (mg)/(μg equiv/ml)/h"}, {"measurement": "Clast_obs/Cmax", "setting": "[7]; iv, 200 mg/kg", "value": "5.5E-05"}, {"measurement": "Lambda_z", "setting": "[7]; iv, 200 mg/kg", "value": 0.03, "unit": "h⁻¹"}, {"measurement": "MRT 0-inf_obs", "setting": "[7]; iv, 200 mg/kg", "value": 8.7, "unit": "h"}, {"measurement": "Vss_obs", "setting": "[7]; iv, 200 mg/kg", "value": "0.09 (mg)/(μg/mL)"}, {"measurement": "Vz_obs", "setting": "[7]; iv, 200 mg/kg", "value": "0.3 (mg)/(μg equiv/ml)"}, {"measurement": "mean plasma radioactivity", "setting": "[7]; iv, 200 mg/kg", "value": 1.073, "unit": "µg equivalents/mL"}]}, {"compound": "CS(=O)(=O)Nc1ccc([N+](=O)[O-])cc1Oc1ccccc1", "note": "[Nimesulide, reference compound]", "values": [{"measurement": "free Nim or H-Nim in the biological samples evaluated", "setting": "[1]", "value": "No free Nim or H-Nim are determined"}]}, {"compound": "CC(=O)NC1C(O)OC(CO)C(O)C1OC1OC(C(=O)Nc2ccc(NS(C)(=O)=O)c(Oc3ccccc3)c2)C(O)C(O)C1O", "note": "(stereo not drawn) [M1]", "values": [{"measurement": "excretion by component, Feces, percent of dose", "setting": "[1]; Group 1, 200 mg/kg IV", "value": 13.20, "unit": "%"}, {"measurement": "excretion by component, Total, percent of dose", "setting": "[1]; Group 1, 200 mg/kg IV", "value": 13.2, "unit": "%"}, {"measurement": "metabolite in fecal extracts", "setting": "[1]; pooled 0 to 120 h", "value": "primary metabolite"}]}, {"compound": "CC(=O)NC1C(O)OC(CO)C(O)C1OC1OC(C(=O)Nc2ccc(NS(C)(=O)=O)c(Oc3ccccc3)c2)C(OC2OC(CO)C(O)C(OC3OC(C(=O)O)C(O)C(O)C3O)C2NC(C)=O)C(O)C1O", "note": "(stereo not drawn) [M1037]", "values": [{"measurement": "metabolite in liver and tumor extracts", "setting": "[1]; 240 h post-dose", "value": "dominant metabolite"}, {"measurement": "excretion by component, Liver + Tumor, percent of dose", "setting": "[1]; Group 1, 200 mg/kg IV", "value": 4.40, "unit": "%"}, {"measurement": "excretion by component, Total, percent of dose", "setting": "[1]; Group 1, 200 mg/kg IV", "value": 4.4, "unit": "%"}]}]}
